The Human Domainome abundance scans (Beltran et al. 2025)
± gives the uncertainty stated by the source.

B1: Far upstream element-binding protein 3, residues 75 to 150; numbered along this chain, Q96I24 (parent)
chain: RTVITEEFKVPDKMVGFIIGRGGEQISRIQAESGCKIQIASESSGIPERPCVLTGTPESIEQAKRLLGQIVDRCRN

Variants of: B1
Assay: abundance fitness (aPCA) (normalised: wild type 0, dead -1); higher = more abundant; growth selection in yeast, the domain comes from the species named
Conditions: Homo sapiens

In order of rising abundance fitness:
1. A63Y  -1.59 ± 0.33
2. L53W  -1.42 ± 0.13
3. G55W  -1.34 ± 0.076
4. G55H  -1.22 ± 0.14
5. G55F  -1.17 ± 0.16
6. T54P  -1.15 ± 0.12
7. G55I  -1.12 ± 0.2
8. G55R  -1.07 ± 0.041
9. C35F  -1.06 ± 0.12
10. L67R  -1.01 ± 0.051
11. I60D  -0.972 ± 0.082
12. C51R  -0.926 ± 0.042
13. L67N  -0.884 ± 0.1
14. L67S  -0.811 ± 0.049
15. S59Y  -0.675 ± 0.077
16. V10G  -0.634 ± 0.03
17. I29S  -0.595 ± 0.038
18. F8R  -0.543 ± 0.029
19. I26N  -0.538 ± 0.08
20. K64C  -0.453 ± 0.044
21. A63T  -0.412 ± 0.041
22. V10H  -0.4 ± 0.053
23. E6W  -0.375 ± 0.033
24. Q30N  -0.369 ± 0.066
25. L53F  -0.354 ± 0.084
26. I39T  -0.321 ± 0.039
27. Q30Y  -0.31 ± 0.067
28. P11K  -0.298 ± 0.053
29. K13I  -0.286 ± 0.068
30. S59V  -0.284 ± 0.035
31. Q30H  -0.279 ± 0.075
32. I29T  -0.271 ± 0.042
33. E24P  -0.271 ± 0.045
34. I26R  -0.251 ± 0.027
35. R49D  -0.251 ± 0.056
36. M14Q  -0.248 ± 0.043
37. K13F  -0.243 ± 0.061
38. I18W  -0.243 ± 0.037
39. K36F  -0.234 ± 0.07
40. I26K  -0.232 ± 0.041
41. G16F  -0.223 ± 0.063
42. P11A  -0.219 ± 0.033
43. Q25W  -0.213 ± 0.033
44. T5D  -0.204 ± 0.068
45. E32H  -0.2 ± 0.064
46. K64Q  -0.197 ± 0.039
47. G23V  -0.193 ± 0.029
48. L53C  -0.191 ± 0.062
49. I18E  -0.182 ± 0.035
50. P57D  -0.182 ± 0.055
51. R49P  -0.182 ± 0.048
52. G23Y  -0.182 ± 0.061
53. K36W  -0.18 ± 0.037
54. F8S  -0.18 ± 0.037
55. R49A  -0.173 ± 0.037
56. Q30G  -0.171 ± 0.025
57. E58L  -0.17 ± 0.038
58. L66F  -0.16 ± 0.07
59. V52D  -0.16 ± 0.049
60. V3H  -0.155 ± 0.074
61. D72N  -0.155 ± 0.061
62. R73Y  -0.151 ± 0.058
63. E6Y  -0.145 ± 0.054
64. I18D  -0.142 ± 0.046
65. I4S  -0.141 ± 0.035
66. E42I  -0.139 ± 0.077
67. D12V  -0.137 ± 0.031
68. E7P  -0.136 ± 0.043
69. I60L  -0.119 ± 0.033
70. K36I  -0.112 ± 0.061
71. P57L  -0.112 ± 0.04
72. I39L  -0.107 ± 0.031
73. R73L  -0.104 ± 0.033
74. A40W  -0.1 ± 0.033
75. N76H  -0.1 ± 0.076
76. S59D  -0.1 ± 0.058
77. D72T  -0.1 ± 0.04
78. F8L  -0.097 ± 0.03
79. P47F  -0.096 ± 0.044
80. P57H  -0.096 ± 0.08
81. K64R  -0.095 ± 0.026
82. A40V  -0.094 ± 0.029
83. G45K  -0.093 ± 0.037
84. V71L  -0.092 ± 0.034
85. G34E  -0.089 ± 0.033
86. I60C  -0.088 ± 0.048
87. D72Q  -0.086 ± 0.041
88. Q38N  -0.086 ± 0.066
89. V3R  -0.085 ± 0.027
90. V3Q  -0.084 ± 0.043
91. R49Q  -0.081 ± 0.041
92. V3C  -0.081 ± 0.044
93. Q25V  -0.08 ± 0.032
94. S43M  -0.079 ± 0.047
95. G23M  -0.078 ± 0.041
96. A31Y  -0.076 ± 0.05
97. I19D  -0.071 ± 0.055
98. T2Y  -0.069 ± 0.06
99. G68W  -0.065 ± 0.037
100. E61N  -0.064 ± 0.051
101. F8V  -0.064 ± 0.029
102. L66S  -0.064 ± 0.033
103. T5R  -0.063 ± 0.031
104. S33T  -0.063 ± 0.042
105. A31V  -0.061 ± 0.029
106. Q38S  -0.06 ± 0.035
107. R1F  -0.059 ± 0.087
108. D12P  -0.058 ± 0.039
109. K13C  -0.058 ± 0.041
110. Q30A  -0.058 ± 0.031
111. G16N  -0.055 ± 0.065
112. S43Q  -0.055 ± 0.045
113. Q38R  -0.055 ± 0.027
114. E48W  -0.055 ± 0.032
115. F17W  -0.052 ± 0.037
116. G45S  -0.051 ± 0.032
117. S44V  -0.05 ± 0.031
118. T2L  -0.05 ± 0.034
119. I19Q  -0.048 ± 0.041
120. E42K  -0.047 ± 0.052
121. E61R  -0.046 ± 0.028
122. P50S  -0.046 ± 0.031
123. G68L  -0.046 ± 0.032
124. Q69K  -0.046 ± 0.044
125. K13R  -0.046 ± 0.026
126. S59A  -0.045 ± 0.032
127. Q62L  -0.044 ± 0.03
128. I70F  -0.044 ± 0.05
129. P50A  -0.042 ± 0.031
130. Q25N  -0.041 ± 0.072
131. A40T  -0.04 ± 0.038
132. Q25K  -0.037 ± 0.047
133. D72S  -0.035 ± 0.033
134. I29L  -0.034 ± 0.031
135. Q69M  -0.03 ± 0.043
136. P47A  -0.03 ± 0.03
137. V52A  -0.029 ± 0.033
138. D12S  -0.027 ± 0.032
139. A40K  -0.024 ± 0.037
140. P57Q  -0.023 ± 0.049
141. C74W  -0.022 ± 0.031
142. F17R  -0.018 ± 0.029
143. K13Q  -0.017 ± 0.038
144. R1I  -0.016 ± 0.073
145. L53I  -0.016 ± 0.077
146. K9M  -0.016 ± 0.041
147. T56S  -0.013 ± 0.031
148. Q38E  -0.013 ± 0.035
149. C74S  -0.01 ± 0.032
150. Q69V  -0.009 ± 0.031
151. I46Q  -0.007 ± 0.042
152. R65V  -0.006 ± 0.029
153. K9G  -0.006 ± 0.026
154. S44K  -0.005 ± 0.042
155. Q69S  -0.002 ± 0.031
156. G22D  0.016 ± 0.051
157. I46H  0.02 ± 0.066
158. Q69D  0.021 ± 0.049
159. I46C  0.023 ± 0.048
160. S41R  0.032 ± 0.027
161. R1C  0.032 ± 0.059
162. A31K  0.033 ± 0.041
163. R73N  0.037 ± 0.066
164. R75G  0.038 ± 0.026
165. C74G  0.041 ± 0.027
166. S27R  0.068 ± 0.029
167. V3N  0.073 ± 0.093
